Among the data in PMC7683346 are fold BRET signal against mini-Gαq values, retold here.

This assay has as its target FFAR4-NanoLuc (UniProt Q5NUL3). As to the kind of experiment: FRET or BRET. (Bioluminescence resonance energy transfer reports proximity on the nanometre scale.)
Chain of UniProt Q5NUL3 (Q5NUL3 whole entry): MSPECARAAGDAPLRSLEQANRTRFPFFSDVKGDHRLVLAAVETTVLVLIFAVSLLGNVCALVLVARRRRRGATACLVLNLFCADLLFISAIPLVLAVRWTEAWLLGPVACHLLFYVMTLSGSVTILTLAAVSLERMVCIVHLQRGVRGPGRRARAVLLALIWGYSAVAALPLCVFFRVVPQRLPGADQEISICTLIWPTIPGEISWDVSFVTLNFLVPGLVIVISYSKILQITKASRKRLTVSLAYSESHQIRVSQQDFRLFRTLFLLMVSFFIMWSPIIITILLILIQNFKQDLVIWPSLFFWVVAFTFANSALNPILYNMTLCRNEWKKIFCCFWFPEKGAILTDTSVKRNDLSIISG

Venus-tagged mini-Gαi: the fold BRET signal against mini-Gαq came to 3 fold.

Regarding Venus-tagged mini-Gαo, the fold BRET signal against mini-Gαq was 3 fold.
